Data as given in the supplement of paper PMC7877785.
± gives the uncertainty stated by the source.

Test: self-splicing fitness, log relative to wild type (ln ratio); higher = more splicing; Tetrahymena group I intron in knt gene, E. coli kanamycin selection, DiMSum; sequences stand for … in CUCUCU…GGAGGGAAAAGUUAUCAGGCAUGCACCUGGUAGCUAGUCUUUAAACCAAUAGAUUGCAUCGGUUUAAAAGGCAAGACCGUCAAAUUGCGGGAAAGGGGUCAACAGCCGUUCAGUACCAAGUCUCAGGGGAAACUUUGAGAUGGCCUUGCAAAGGGUAUGGUAAUAAGCUGACGGACAUGGUCCUAACCACGCAGCCAAGUCCUAAGUCAACAGAUCUUCUGUUGAUAUGGAUGCAGUUCACAGACUAAAUGUCGGUCGGGGAAGAUGUAUUCUUCUCAUAAGAUAUAGUCGGACCUCUCCUUAAUGGGAGCUAGCGGAUGAAGUGAUGCAACACUGGAGCCGCUGGGAACUAAUUUGUAUGCGAAAGUAUAUUGAUUAGUUUUGGAGUACUCGUGGUCG
In short: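 The eight P1ex-region nucleotides of an intron in the knt kanamycin-resistance gene on pET-22b(+) were all randomised and the library put into E. coli BL21(DE3). Six replicate transformations were grown overnight at 37°C or 30°C on LB agar with or without 25 μg/mL kanamycin, together with 100 μg/mL carbenicillin, 50 μM IPTG and 0.2% rhamnose. Colonies were pooled and amplicon-sequenced on an Illumina HiSeq 2500. Fitness from DiMSum is the error-weighted combination of wild-type-normalised replicate fold changes, kanamycin over none.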

Sequence | self-splicing fitness (ln) (30 °C) | self-splicing fitness (ln) (37 °C)
ACUAAGCAAUAUUACGGCGA | -0.131 ± 0.1 | -0.411 ± 0.13
UCGCAGCAAUAUUACGGGAG | -3.59 ± 0.24 | -3.15 ± 0.23
UUGAAGCAAUAUUACGUGAC | -3.1 ± 0.3 | -1.29 ± 0.24
GUAUAGCAAUAUUACGACAG | -2.58 ± 0.19 | -1.9 ± 0.25
CAGCAGCAAUAUUACGACGG | -0.183 ± 0.064 | 0.472 ± 0.1
UAGUAGCAAUAUUACGACCU | -0.902 ± 0.11 | 0.242 ± 0.11
UGUGAGCAAUAUUACGUACA | -1.04 ± 0.091 | -0.41 ± 0.1
AACGAGCAAUAUUACGCACC | -2.32 ± 0.42 | -1.65 ± 0.35
UCUGAGCAAUAUUACGUUGA | -1.89 ± 0.1 | -0.656 ± 0.085
AGGAAGCAAUAUUACGUUAU | -3.44 ± 0.18 | -1.6 ± 0.17
CUAGAGCAAUAUUACGCGGU | -1.42 ± 0.092 | -0.641 ± 0.13
AAUAAGCAAUAUUACGGGUC | -3.18 ± 0.2 | -2.53 ± 0.22
ACUUAGCAAUAUUACGACUG | -1.53 ± 0.099 | -0.694 ± 0.16
ACAGAGCAAUAUUACGGAGG | -3.8 ± 0.33 | -1.39 ± 0.24
GGCUAGCAAUAUUACGUGAG | -1.21 ± 0.087 | -0.194 ± 0.092
UAGCAGCAAUAUUACGGAAC | -4.05 ± 0.27 | -3.08 ± 0.31
UCCGAGCAAUAUUACGCAUG | -2.8 ± 0.32 | -2.36 ± 0.3
GUAGAGCAAUAUUACGUCCU | -1.1 ± 0.2 | -0.4 ± 0.22
AGAGAGCAAUAUUACGGGUU | -4.74 ± 0.46 | -2.08 ± 0.23
CGAGAGCAAUAUUACGCUAG |  | -2.77 ± 0.4
GCGGAGCAAUAUUACGAGAU | -2.21 ± 0.27 | -1.94 ± 0.4
AGAAAGCAAUAUUACGGUAU | -2.66 ± 0.14 | -0.578 ± 0.12
AGGGAGCAAUAUUACGUCGG |  | -1.52 ± 0.38
CUAGAGCAAUAUUACGGCUA | -3.41 ± 0.31 | -1.17 ± 0.21
GAUAAGCAAUAUUACGGGUG | -1.09 ± 0.081 | -1.02 ± 0.099
CACCAGCAAUAUUACGCGCA | -2.03 ± 0.084 | -1.51 ± 0.085

Sequence | self-splicing fitness (ln) (30 °C) | self-splicing fitness (ln) (37 °C)
GACUAGCAAUAUUACGGACC | -1.77 ± 0.38 | -0.714 ± 0.39
UUUGAGCAAUAUUACGUUCU | -3.55 ± 0.32 | -2.58 ± 0.25
UAGCAGCAAUAUUACGUCGU | -3.4 ± 0.14 | -1.97 ± 0.12
ACUUAGCAAUAUUACGAUCC | -1.9 ± 0.15 | -0.595 ± 0.2
GGGUAGCAAUAUUACGCAUC | -2.34 ± 0.29 | -2.48 ± 0.24
CUUUAGCAAUAUUACGGGGU | -3.02 ± 0.24 | -2.94 ± 0.27
ACGUAGCAAUAUUACGGAGA | -3.36 ± 0.44 | -2.08 ± 0.24
AGUAAGCAAUAUUACGUUGU | -3 ± 0.099 | -1.97 ± 0.12
CACCAGCAAUAUUACGUAGG | -0.739 ± 0.05 | -0.0785 ± 0.074
CUGAAGCAAUAUUACGGAAG | -1.37 ± 0.096 | -0.636 ± 0.12
UACCAGCAAUAUUACGAUAC |  | -2.39 ± 0.19
GACAAGCAAUAUUACGAGAA | -1.77 ± 0.3 | -2.19 ± 0.22
AUCAAGCAAUAUUACGAGAU | -2.81 ± 0.16 | -2.67 ± 0.21
GGUCAGCAAUAUUACGGAGC | -1.4 ± 0.18 | -0.82 ± 0.14
UAAUAGCAAUAUUACGUUAC | -4.32 ± 0.34 | -2.2 ± 0.23
UGCCAGCAAUAUUACGCUCU | -1.42 ± 0.079 | 0.293 ± 0.098
AGCAAGCAAUAUUACGGAAA | -3.46 ± 0.18 | -1.03 ± 0.11
CCCUAGCAAUAUUACGGUCG | -2.02 ± 0.068 | -0.697 ± 0.092
GAGUAGCAAUAUUACGCGAA |  | -0.658 ± 0.37
ACCUAGCAAUAUUACGAUUC | -1.72 ± 0.083 | -0.58 ± 0.097
CAAUAGCAAUAUUACGACGC | -2.73 ± 0.19 | -0.616 ± 0.17
GUUCAGCAAUAUUACGUGCG | -1.45 ± 0.068 | -0.215 ± 0.093
GAUGAGCAAUAUUACGUGCG | -3.79 ± 0.17 | -1.8 ± 0.13
ACCUAGCAAUAUUACGGCGA | -1.49 ± 0.12 | -0.462 ± 0.11
UCGGAGCAAUAUUACGAUGU | -2.81 ± 0.17 | -1.2 ± 0.13
AGUGAGCAAUAUUACGUACC | -0.317 ± 0.2 | -0.261 ± 0.28

Sequence | self-splicing fitness (ln) (30 °C) | self-splicing fitness (ln) (37 °C)
GUUUAGCAAUAUUACGCUGU | -1.52 ± 0.12 | -2 ± 0.14
UCGAAGCAAUAUUACGUCCG | -0.163 ± 0.1 | -0.412 ± 0.12
UGCAAGCAAUAUUACGGUAA | -1.08 ± 0.12 | -0.838 ± 0.11
AUACAGCAAUAUUACGGCAG | -2.21 ± 0.072 | -0.564 ± 0.077
UUGAAGCAAUAUUACGAGGU | -4.15 ± 0.37 | -1.78 ± 0.22
GCUGAGCAAUAUUACGUGUA | -2.4 ± 0.21 | -3.02 ± 0.32
UGGGAGCAAUAUUACGUAUC | -3.59 ± 0.39 | -2.56 ± 0.33
AAGAAGCAAUAUUACGCGCA | 0.0488 ± 0.077 | 0.115 ± 0.1
GUCGAGCAAUAUUACGGUAU | -1.34 ± 0.084 | -0.615 ± 0.12
GGCAAGCAAUAUUACGUCAG | -4.5 ± 0.34 | -2.4 ± 0.26
CUGAAGCAAUAUUACGAAUU | -3.24 ± 0.12 | -1.86 ± 0.14
CCGGAGCAAUAUUACGCUAA | -2.65 ± 0.26 | -2.96 ± 0.35
UCCUAGCAAUAUUACGUAAA | -1.84 ± 0.19 | 0.0696 ± 0.22
AAGGAGCAAUAUUACGUGCC | -3.03 ± 0.37 | -0.905 ± 0.39
AAUUAGCAAUAUUACGAGUC |  | -1.9 ± 0.36
CACGAGCAAUAUUACGCUCA | -2.85 ± 0.45 | -2.42 ± 0.27
UCAGAGCAAUAUUACGAAGU | -3.13 ± 0.33 | 
GUUCAGCAAUAUUACGAGAG | -0.895 ± 0.12 | -0.725 ± 0.12
AGUUAGCAAUAUUACGGGUA | -2.61 ± 0.39 | -0.0817 ± 0.2
AAGUAGCAAUAUUACGAAUU | -1.94 ± 0.12 | -0.748 ± 0.15
GAGUAGCAAUAUUACGGCAA | -1.84 ± 0.17 | -0.547 ± 0.18
GCAGAGCAAUAUUACGUUCG | -1.91 ± 0.14 | -1.99 ± 0.3
AGACAGCAAUAUUACGUGUU | -3.8 ± 0.16 | -2.29 ± 0.14
CCACAGCAAUAUUACGCGAG | -1.27 ± 0.076 | -0.902 ± 0.083
AAGAAGCAAUAUUACGAGGG | -3.5 ± 0.3 | -2.32 ± 0.35
